Among the data in paper PMC5880795, “Cloning and expression of a novel α-1,3-arabinofuranosidase from Penicillium oxalicum sp. 68” (AMB Express, 2018) are Km and kcat values, retold here.

This data set concerns T1, O=[N+]([O-])c1ccc(O[C@@H]2O[C@@H](CO)[C@H](O)[C@H]2O)cc1.
T1 construct: signal peptide (predicted residues 1-30) removed; pPIC9K SnaBI/EcoRI, secreted from Pichia pastoris GS115; no tag mentioned
Briefly: purified protein. Type of data set: biochemical, Penicillium oxalicum. Conditions: 20 mM Na-acetate pH 4.5, 37 °C (standard assay; kinetic conditions not restated).

Chain of PoAbf62A (Penicillium oxalicum 114-2) (chain, as listed by the source): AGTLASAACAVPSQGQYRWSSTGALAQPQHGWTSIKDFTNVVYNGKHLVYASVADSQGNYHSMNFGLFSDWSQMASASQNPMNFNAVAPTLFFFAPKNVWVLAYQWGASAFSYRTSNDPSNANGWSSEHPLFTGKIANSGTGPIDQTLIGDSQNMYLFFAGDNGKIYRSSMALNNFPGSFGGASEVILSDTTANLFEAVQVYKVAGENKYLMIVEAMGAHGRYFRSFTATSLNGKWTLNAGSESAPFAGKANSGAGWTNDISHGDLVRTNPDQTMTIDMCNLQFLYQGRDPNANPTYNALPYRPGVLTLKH

As to PoAbf62A (Penicillium oxalicum 114-2), the Km (as a rule, the concentration of substrate that gives half-maximal velocity) turned out to be 1360 ± 120 µM and the kcat – broadly, the maximal rate divided by the concentration of active sites – was 0.27 ± 0.01 s⁻¹.
